What was measured:
DLL3 on cells [1] = biological target: T1, DLL3 on cells (UniProt Q9NYJ7 27-618, limits assumed); assay: flow cytometry on SHP-77 cells
T1 construct: whole, on cells; also called DLL3 on SHP-77, NCI-H82 (H82), NCI-H69 and HEK-DLL3 cells
T1 sequence (looked up): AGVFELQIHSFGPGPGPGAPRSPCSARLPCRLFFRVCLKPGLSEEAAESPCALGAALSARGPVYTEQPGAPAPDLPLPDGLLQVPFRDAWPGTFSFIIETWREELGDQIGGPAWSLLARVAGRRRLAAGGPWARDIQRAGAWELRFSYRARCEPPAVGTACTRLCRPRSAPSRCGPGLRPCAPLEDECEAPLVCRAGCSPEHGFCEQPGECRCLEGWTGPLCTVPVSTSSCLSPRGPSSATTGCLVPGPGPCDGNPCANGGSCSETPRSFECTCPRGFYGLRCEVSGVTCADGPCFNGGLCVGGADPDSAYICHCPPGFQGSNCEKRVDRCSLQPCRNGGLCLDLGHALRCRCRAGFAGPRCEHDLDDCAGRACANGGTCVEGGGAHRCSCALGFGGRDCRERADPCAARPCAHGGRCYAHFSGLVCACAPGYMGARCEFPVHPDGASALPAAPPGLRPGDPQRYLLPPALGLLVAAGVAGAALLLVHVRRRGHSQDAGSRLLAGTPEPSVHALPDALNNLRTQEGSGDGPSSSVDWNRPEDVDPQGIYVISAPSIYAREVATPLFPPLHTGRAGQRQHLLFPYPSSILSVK

DLL3 on cells [2] = biological target: T1, DLL3 on cells; assay: flow cytometry on HEK-DLL3 cells

EC50 (DLL3 on cells [1]): 0.11 nM
EC50 (DLL3 on cells [2]): 0.06 nM
B1: Rovalpituzumab (antibody, V domains shown)
VH: QVQLVQSGAEVKKPGASVKVSCKASGYTFTNYGMNWVRQAPGQGLEWMGWINTYTGEPTYADDFKGRVTMTTDTSTSTAYMELRSLRSDDTAVYYCARIGDSSPSDYWGQGTLVTVSS
VL: EIVMTQSPATLSVSPGERATLSCKASQSVSNDVVWYQQKPGQAPRLLIYYASNRYTGIPARFSGSGSGTEFTLTISSLQSEDFAVYYCQQDYTSPWTFGQGTKLEIK

Source: patent US20260183437A1 (ABDERA THERAPEUTICS, published 2026)
